Reference: article PMC7060279 (2020)

How the values were obtained:
Test in all cases: SPR
[1] = target: human recombinant TLR2 protein (human, UniProt O60603 21-588)
integrin αvβ3 protein = target: T1, integrin αvβ3 protein (UniProt P06756 31-1048; P05106 27-718)
T1 chain 1: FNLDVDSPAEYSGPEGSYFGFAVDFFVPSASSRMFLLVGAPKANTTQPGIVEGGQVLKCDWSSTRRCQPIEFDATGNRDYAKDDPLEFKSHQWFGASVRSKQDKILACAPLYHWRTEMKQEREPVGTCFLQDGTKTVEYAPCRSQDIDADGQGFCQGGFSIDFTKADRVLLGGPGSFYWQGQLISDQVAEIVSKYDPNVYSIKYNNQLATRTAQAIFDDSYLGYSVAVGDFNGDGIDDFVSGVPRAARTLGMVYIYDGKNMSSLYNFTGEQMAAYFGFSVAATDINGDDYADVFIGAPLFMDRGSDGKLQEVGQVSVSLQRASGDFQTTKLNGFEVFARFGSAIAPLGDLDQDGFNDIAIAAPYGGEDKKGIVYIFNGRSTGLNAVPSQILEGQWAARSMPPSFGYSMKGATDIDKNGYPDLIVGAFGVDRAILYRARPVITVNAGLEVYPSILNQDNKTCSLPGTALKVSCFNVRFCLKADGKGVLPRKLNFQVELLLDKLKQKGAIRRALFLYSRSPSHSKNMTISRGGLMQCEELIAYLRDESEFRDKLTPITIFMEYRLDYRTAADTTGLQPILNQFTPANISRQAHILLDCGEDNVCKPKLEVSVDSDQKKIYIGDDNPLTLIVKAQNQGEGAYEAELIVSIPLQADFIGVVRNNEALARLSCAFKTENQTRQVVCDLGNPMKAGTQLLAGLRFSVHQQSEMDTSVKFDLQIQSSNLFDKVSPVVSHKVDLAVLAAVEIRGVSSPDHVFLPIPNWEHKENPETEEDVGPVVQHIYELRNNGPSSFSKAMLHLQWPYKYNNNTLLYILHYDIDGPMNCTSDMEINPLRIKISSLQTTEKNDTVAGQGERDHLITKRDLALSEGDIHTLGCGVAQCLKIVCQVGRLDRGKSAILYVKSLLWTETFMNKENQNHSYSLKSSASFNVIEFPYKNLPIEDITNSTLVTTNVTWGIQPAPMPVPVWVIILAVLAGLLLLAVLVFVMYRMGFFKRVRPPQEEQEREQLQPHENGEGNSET
T1 chain 2: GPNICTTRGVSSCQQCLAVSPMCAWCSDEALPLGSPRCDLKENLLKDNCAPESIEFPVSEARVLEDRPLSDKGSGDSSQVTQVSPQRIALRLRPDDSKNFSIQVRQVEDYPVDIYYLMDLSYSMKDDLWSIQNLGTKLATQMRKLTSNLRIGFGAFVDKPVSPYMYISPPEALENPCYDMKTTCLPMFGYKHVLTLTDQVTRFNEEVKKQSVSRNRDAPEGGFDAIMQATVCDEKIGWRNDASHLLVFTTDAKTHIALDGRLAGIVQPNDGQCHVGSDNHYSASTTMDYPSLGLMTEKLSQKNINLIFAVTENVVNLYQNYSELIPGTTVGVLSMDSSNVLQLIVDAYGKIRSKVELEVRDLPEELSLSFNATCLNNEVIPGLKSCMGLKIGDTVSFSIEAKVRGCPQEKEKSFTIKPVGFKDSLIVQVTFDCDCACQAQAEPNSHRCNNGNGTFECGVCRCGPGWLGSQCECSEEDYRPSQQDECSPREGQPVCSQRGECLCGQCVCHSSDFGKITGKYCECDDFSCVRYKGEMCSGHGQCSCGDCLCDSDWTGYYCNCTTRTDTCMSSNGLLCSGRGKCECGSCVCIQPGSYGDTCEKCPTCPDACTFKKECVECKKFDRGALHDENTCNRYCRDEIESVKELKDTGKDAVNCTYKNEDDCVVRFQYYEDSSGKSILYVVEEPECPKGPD

[2] = target: human recombinant TLR4 protein (without MD2) (human, UniProt O00206 24-631)
Sequence of human recombinant TLR4 protein (without MD2) (O00206 24-631): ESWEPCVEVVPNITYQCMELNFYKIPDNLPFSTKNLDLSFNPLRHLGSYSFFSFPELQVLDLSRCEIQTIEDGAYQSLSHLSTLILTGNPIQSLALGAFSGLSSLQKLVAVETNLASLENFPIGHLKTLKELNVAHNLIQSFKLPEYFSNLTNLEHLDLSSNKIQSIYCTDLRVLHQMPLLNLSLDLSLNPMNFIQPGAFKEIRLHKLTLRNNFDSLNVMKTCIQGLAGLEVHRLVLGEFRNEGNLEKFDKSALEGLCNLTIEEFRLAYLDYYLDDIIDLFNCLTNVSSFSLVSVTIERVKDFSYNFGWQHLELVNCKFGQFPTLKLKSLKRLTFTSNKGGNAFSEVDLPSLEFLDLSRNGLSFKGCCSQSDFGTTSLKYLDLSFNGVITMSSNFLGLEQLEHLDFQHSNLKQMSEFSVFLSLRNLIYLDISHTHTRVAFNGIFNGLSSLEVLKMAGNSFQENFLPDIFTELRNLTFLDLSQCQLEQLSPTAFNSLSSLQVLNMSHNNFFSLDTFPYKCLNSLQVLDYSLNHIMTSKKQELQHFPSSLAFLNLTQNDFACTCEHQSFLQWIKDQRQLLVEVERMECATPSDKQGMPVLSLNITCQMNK

Sequence of human recombinant TLR2 protein (O60603 21-588): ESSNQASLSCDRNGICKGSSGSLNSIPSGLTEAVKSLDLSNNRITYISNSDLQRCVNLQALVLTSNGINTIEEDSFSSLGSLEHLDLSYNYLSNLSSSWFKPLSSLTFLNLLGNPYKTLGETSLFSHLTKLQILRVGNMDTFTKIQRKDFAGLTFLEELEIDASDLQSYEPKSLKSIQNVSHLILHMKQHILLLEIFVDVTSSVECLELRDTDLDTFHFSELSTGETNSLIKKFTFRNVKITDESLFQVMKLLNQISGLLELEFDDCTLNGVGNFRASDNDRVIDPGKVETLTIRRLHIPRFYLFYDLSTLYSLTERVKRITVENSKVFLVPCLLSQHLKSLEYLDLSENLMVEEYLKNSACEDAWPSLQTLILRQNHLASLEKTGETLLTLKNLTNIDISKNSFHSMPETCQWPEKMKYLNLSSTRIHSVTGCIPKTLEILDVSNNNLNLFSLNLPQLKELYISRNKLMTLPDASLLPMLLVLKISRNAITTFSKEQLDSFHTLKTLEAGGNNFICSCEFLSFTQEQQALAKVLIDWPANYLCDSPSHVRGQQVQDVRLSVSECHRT

B1: CCN1-WT (recombinant matricellular protein CCN1) (natural protein)
chain: TCPAACHCPLEAPKCAPGVGLVRDGCGCCKVCAKQLNEDCSKTQPCDHTKGLECNFGASSTALKGICRAQSEGRPCEYNSRIYQNGESFQPNCKHQCTCIDGAVGCIPLCPQELSLPNLGCPNPRLVKVSGQCCEEWVCDEDSIKDSLDDQDDLLGLDASEVELTRNNELIAIGKGSSLKRLPVFGTEPRVLFNPLHAHGQKCIVQTTSWSQCSKSCGTGISTRVTNDNPECRLVKETRICEVRPCGQPVYSSLKKGKKCSKTKKSPEPVRFTYAGCSSVKKYRPKYCGSCVDGRCCTPLQTRTVKMRFRCEDGEMFSKNVMMIQSCKCNYNCPHPNEASFRLYSLFNDIHKFRD
- koff [1]: 0.0146 s⁻¹
- koff (integrin αvβ3 protein): 0.0193 s⁻¹
- koff [2]: 0.00288 s⁻¹
